In the supplement of paper PMC9112550, “Optimization of the antimicrobial peptide Bac7 by deep mutational scanning” (BMC Biology, 2022):

Tested on: Escherichia coli TOP10
Assay: shrunken log2 fold change of peptide-encoding DNA abundance (4.5 h post-induction vs induction); higher = less antimicrobial activity (less host growth inhibition)
Conditions: time post-induction: 4.5 h; library: site-saturation at positions 5, 18, 19, 20
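Also: peptides expressed intracellularly from a pBAD plasmid library in pooled LB shake-flask culture, induced with 0.3% L-arabinose, DNA abundance read by NGS, three biological replicates, DESeq2 with apeglm shrinkage.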

RRIRTRPPRLPRPRPRPKMLPRP
shrunken log2 fold change: -0.204

RRIRVRPPRLPRPRPRPSAQPRP
shrunken log2 fold change: 0.0391

RRIRTRPPRLPRPRPRPSHCPRP
shrunken log2 fold change: -0.0229

RRIRHRPPRLPRPRPRPAHQPRP
shrunken log2 fold change: 0.0515

RRIRTRPPRLPRPRPRPTMIPRP
shrunken log2 fold change: -0.413

RRIRGRPPRLPRPRPRPMFMPRP
shrunken log2 fold change: 0.0699

RRIRKRPPRLPRPRPRPYEQPRP
shrunken log2 fold change: -0.0536

RRIRTRPPRLPRPRPRPVCRPRP
shrunken log2 fold change: 0.0309

RRIRYRPPRLPRPRPRPSFFPRP
shrunken log2 fold change: -0.665

RRIRKRPPRLPRPRPRPKYYPRP
shrunken log2 fold change: -0.0776

RRIRLRPPRLPRPRPRPYNGPRP
shrunken log2 fold change: -0.103

RRIRDRPPRLPRPRPRPQYKPRP
shrunken log2 fold change: -0.121

RRIRIRPPRLPRPRPRPRENPRP
shrunken log2 fold change: 0.0178

RRIRLRPPRLPRPRPRPVQGPRP
shrunken log2 fold change: -0.01

RRIRTRPPRLPRPRPRPPIFPRP
shrunken log2 fold change: -0.245

RRIRYRPPRLPRPRPRPYALPRP
shrunken log2 fold change: -0.172

RRIRRRPPRLPRPRPRPRQVPRP
shrunken log2 fold change: 0.466

RRIRDRPPRLPRPRPRPEVAPRP
shrunken log2 fold change: 0.563

RRIRARPPRLPRPRPRPPLWPRP
shrunken log2 fold change: 1.17

RRIRFRPPRLPRPRPRPCMHPRP
shrunken log2 fold change: -0.111

RRIRQRPPRLPRPRPRPETSPRP
shrunken log2 fold change: -0.192

RRIRERPPRLPRPRPRPGWKPRP
shrunken log2 fold change: 0.015

RRIRKRPPRLPRPRPRPWQCPRP
shrunken log2 fold change: -0.00136

RRIRKRPPRLPRPRPRPKHRPRP
shrunken log2 fold change: 0.237

RRIRTRPPRLPRPRPRPHCGPRP
shrunken log2 fold change: -0.0402

RRIRQRPPRLPRPRPRPAERPRP
shrunken log2 fold change: 0.179

RRIRTRPPRLPRPRPRPIMSPRP
shrunken log2 fold change: -0.152

RRIRNRPPRLPRPRPRPHSNPRP
shrunken log2 fold change: -0.341

RRIRKRPPRLPRPRPRPNCGPRP
shrunken log2 fold change: 0.0611

RRIRQRPPRLPRPRPRPRMEPRP
shrunken log2 fold change: -0.194

RRIRERPPRLPRPRPRPWWPPRP
shrunken log2 fold change: -0.155

RRIRGRPPRLPRPRPRPYIYPRP
shrunken log2 fold change: -0.13

RRIRYRPPRLPRPRPRPTPRPRP
shrunken log2 fold change: 0.886

RRIRNRPPRLPRPRPRPLRYPRP
shrunken log2 fold change: 0.0165

RRIRLRPPRLPRPRPRPAGEPRP
shrunken log2 fold change: -0.0968

RRIRNRPPRLPRPRPRPCGEPRP
shrunken log2 fold change: 0.0369

RRIRIRPPRLPRPRPRPANCPRP
shrunken log2 fold change: -1.1

RRIRFRPPRLPRPRPRPDWPPRP
shrunken log2 fold change: -0.0836

RRIRERPPRLPRPRPRPVCSPRP
shrunken log2 fold change: -0.239

RRIRMRPPRLPRPRPRPQGMPRP
shrunken log2 fold change: 0.0363

RRIRCRPPRLPRPRPRPRMKPRP
shrunken log2 fold change: 0.0252

RRIRGRPPRLPRPRPRPGQVPRP
shrunken log2 fold change: 0.11

RRIRTRPPRLPRPRPRPKLHPRP
shrunken log2 fold change: -0.101

RRIRERPPRLPRPRPRPSRDPRP
shrunken log2 fold change: -0.12

RRIRVRPPRLPRPRPRPTCNPRP
shrunken log2 fold change: -0.233

RRIRSRPPRLPRPRPRPMNTPRP
shrunken log2 fold change: -0.647

RRIRERPPRLPRPRPRPIQIPRP
shrunken log2 fold change: -0.103

RRIRIRPPRLPRPRPRPLWNPRP
shrunken log2 fold change: -0.598

RRIRGRPPRLPRPRPRPMQIPRP
shrunken log2 fold change: 0.406

RRIRFRPPRLPRPRPRPLDKPRP
shrunken log2 fold change: -0.103

RRIRYRPPRLPRPRPRPMGRPRP
shrunken log2 fold change: -0.117

RRIRRRPPRLPRPRPRPMYHPRP
shrunken log2 fold change: -0.159

RRIRQRPPRLPRPRPRPVCGPRP
shrunken log2 fold change: 0.205

RRIRQRPPRLPRPRPRPELHPRP
shrunken log2 fold change: 0.0795

RRIRSRPPRLPRPRPRPCYVPRP
shrunken log2 fold change: -0.338

RRIRPRPPRLPRPRPRPMWTPRP
shrunken log2 fold change: 0.0739

RRIRVRPPRLPRPRPRPQNTPRP
shrunken log2 fold change: -0.524

RRIRSRPPRLPRPRPRPMKCPRP
shrunken log2 fold change: 0.235

RRIRVRPPRLPRPRPRPLMKPRP
shrunken log2 fold change: -0.269

RRIRQRPPRLPRPRPRPQMPPRP
shrunken log2 fold change: -1.26

RRIRWRPPRLPRPRPRPWITPRP
shrunken log2 fold change: -0.0174

RRIRHRPPRLPRPRPRPMPLPRP
shrunken log2 fold change: -0.0217

RRIRFRPPRLPRPRPRPSIAPRP
shrunken log2 fold change: -0.271

RRIRKRPPRLPRPRPRPIGSPRP
shrunken log2 fold change: -0.0113

RRIRWRPPRLPRPRPRPQDGPRP
shrunken log2 fold change: 0.0557

RRIRGRPPRLPRPRPRPYVDPRP
shrunken log2 fold change: -0.0322

RRIRSRPPRLPRPRPRPHFIPRP
shrunken log2 fold change: -0.344

RRIRKRPPRLPRPRPRPVMWPRP
shrunken log2 fold change: -0.221

RRIRTRPPRLPRPRPRPTMGPRP
shrunken log2 fold change: 0.0301

RRIRPRPPRLPRPRPRPREKPRP
shrunken log2 fold change: 0.489

RRIRKRPPRLPRPRPRPGWWPRP
shrunken log2 fold change: 0.0245

RRIRIRPPRLPRPRPRPTNMPRP
shrunken log2 fold change: -0.427

RRIRFRPPRLPRPRPRPVNPPRP
shrunken log2 fold change: -0.154

RRIRCRPPRLPRPRPRPMVNPRP
shrunken log2 fold change: -0.0109

RRIRQRPPRLPRPRPRPSRWPRP
shrunken log2 fold change: -0.0126

RRIRPRPPRLPRPRPRPREYPRP
shrunken log2 fold change: 0.115

RRIRPRPPRLPRPRPRPHCNPRP
shrunken log2 fold change: -0.52

RRIRHRPPRLPRPRPRPEFTPRP
shrunken log2 fold change: -0.0939

RRIRLRPPRLPRPRPRPPQRPRP
shrunken log2 fold change: 0.26

RRIRPRPPRLPRPRPRPWFCPRP
shrunken log2 fold change: 0.138

RRIRYRPPRLPRPRPRPDSSPRP
shrunken log2 fold change: -0.0431

RRIRRRPPRLPRPRPRPLIPPRP
shrunken log2 fold change: -0.0124

RRIRRRPPRLPRPRPRPPLQPRP
shrunken log2 fold change: 0.682

RRIRCRPPRLPRPRPRPDCFPRP
shrunken log2 fold change: 0.182

RRIRNRPPRLPRPRPRPMHNPRP
shrunken log2 fold change: -0.286

RRIRTRPPRLPRPRPRPTGQPRP
shrunken log2 fold change: 0.031

RRIRRRPPRLPRPRPRPCATPRP
shrunken log2 fold change: 0.586

RRIRERPPRLPRPRPRPRFFPRP
shrunken log2 fold change: -0.00349

RRIRMRPPRLPRPRPRPADCPRP
shrunken log2 fold change: 0.918

RRIRARPPRLPRPRPRPMVHPRP
shrunken log2 fold change: 0.0572

RRIRLRPPRLPRPRPRPMFPPRP
shrunken log2 fold change: -0.281

RRIRSRPPRLPRPRPRPHKYPRP
shrunken log2 fold change: -0.377

RRIRSRPPRLPRPRPRPLTFPRP
shrunken log2 fold change: 0.182

RRIRMRPPRLPRPRPRPEYSPRP
shrunken log2 fold change: 0.0257

RRIRSRPPRLPRPRPRPSQNPRP
shrunken log2 fold change: -0.321

RRIRNRPPRLPRPRPRPNCAPRP
shrunken log2 fold change: -0.123

RRIRGRPPRLPRPRPRPHVYPRP
shrunken log2 fold change: 0.469

RRIRIRPPRLPRPRPRPVYTPRP
shrunken log2 fold change: -0.346

RRIRHRPPRLPRPRPRPAQFPRP
shrunken log2 fold change: -0.0111

RRIRIRPPRLPRPRPRPRYSPRP
shrunken log2 fold change: -0.484

RRIRSRPPRLPRPRPRPPVWPRP
shrunken log2 fold change: 0.48

RRIRDRPPRLPRPRPRPDYLPRP
shrunken log2 fold change: 0.0544

RRIRYRPPRLPRPRPRPHGLPRP
shrunken log2 fold change: 0.0126

RRIRVRPPRLPRPRPRPVILPRP
shrunken log2 fold change: -0.248

RRIRLRPPRLPRPRPRPPWEPRP
shrunken log2 fold change: 0.192

RRIRDRPPRLPRPRPRPGDEPRP
shrunken log2 fold change: 0.0587

RRIRRRPPRLPRPRPRPMQTPRP
shrunken log2 fold change: -0.00191

RRIRFRPPRLPRPRPRPWACPRP
shrunken log2 fold change: -0.15

RRIRIRPPRLPRPRPRPDKKPRP
shrunken log2 fold change: -0.0638

RRIRERPPRLPRPRPRPHNGPRP
shrunken log2 fold change: 0.0109

RRIRRRPPRLPRPRPRPGFKPRP
shrunken log2 fold change: 0.0975

RRIRPRPPRLPRPRPRPSCWPRP
shrunken log2 fold change: 0.36

RRIRDRPPRLPRPRPRPCVYPRP
shrunken log2 fold change: -0.0478

RRIRERPPRLPRPRPRPWNWPRP
shrunken log2 fold change: -0.131

RRIRDRPPRLPRPRPRPYVMPRP
shrunken log2 fold change: -0.342

RRIRDRPPRLPRPRPRPGYRPRP
shrunken log2 fold change: 0.000964

RRIRDRPPRLPRPRPRPYRSPRP
shrunken log2 fold change: -0.142

RRIRNRPPRLPRPRPRPNHKPRP
shrunken log2 fold change: -0.688

RRIRNRPPRLPRPRPRPMSPPRP
shrunken log2 fold change: -0.000685

RRIRFRPPRLPRPRPRPYIWPRP
shrunken log2 fold change: -0.425

RRIRQRPPRLPRPRPRPHIYPRP
shrunken log2 fold change: -0.0139

RRIRYRPPRLPRPRPRPFNMPRP
shrunken log2 fold change: -0.202

RRIRMRPPRLPRPRPRPNSYPRP
shrunken log2 fold change: -0.0962

RRIRRRPPRLPRPRPRPIQVPRP
shrunken log2 fold change: -0.0268

RRIRARPPRLPRPRPRPYMVPRP
shrunken log2 fold change: -0.583

RRIRTRPPRLPRPRPRPTMMPRP
shrunken log2 fold change: -0.14

RRIRMRPPRLPRPRPRPHGIPRP
shrunken log2 fold change: 0.0295

RRIRPRPPRLPRPRPRPQNNPRP
shrunken log2 fold change: -0.812

RRIRLRPPRLPRPRPRPVTRPRP
shrunken log2 fold change: 0.0329

RRIRSRPPRLPRPRPRPKMNPRP
shrunken log2 fold change: -0.163

RRIRFRPPRLPRPRPRPWFGPRP
shrunken log2 fold change: -0.191

RRIRYRPPRLPRPRPRPGPDPRP
shrunken log2 fold change: 0.184

RRIRNRPPRLPRPRPRPYMPPRP
shrunken log2 fold change: -0.0173

RRIRNRPPRLPRPRPRPMLGPRP
shrunken log2 fold change: 0.0259

RRIRGRPPRLPRPRPRPIMQPRP
shrunken log2 fold change: 0.105

RRIRGRPPRLPRPRPRPGHVPRP
shrunken log2 fold change: 0.204

RRIRDRPPRLPRPRPRPEEAPRP
shrunken log2 fold change: 2.05

RRIRMRPPRLPRPRPRPHDPPRP
shrunken log2 fold change: 0.000689

RRIRLRPPRLPRPRPRPTTYPRP
shrunken log2 fold change: -0.182

RRIRIRPPRLPRPRPRPHAGPRP
shrunken log2 fold change: -0.242

RRIRSRPPRLPRPRPRPVQHPRP
shrunken log2 fold change: -0.0389

RRIRERPPRLPRPRPRPITTPRP
shrunken log2 fold change: -0.03

RRIRVRPPRLPRPRPRPNGEPRP
shrunken log2 fold change: 0.0914

RRIRIRPPRLPRPRPRPKKVPRP
shrunken log2 fold change: -0.291

RRIRTRPPRLPRPRPRPAVCPRP
shrunken log2 fold change: 0.712

RRIRDRPPRLPRPRPRPTFYPRP
shrunken log2 fold change: -0.286

RRIRPRPPRLPRPRPRPAYYPRP
shrunken log2 fold change: -0.0697

RRIRPRPPRLPRPRPRPQPKPRP
shrunken log2 fold change: 0.147

RRIRIRPPRLPRPRPRPADFPRP
shrunken log2 fold change: -0.162

RRIRCRPPRLPRPRPRPQCTPRP
shrunken log2 fold change: -0.654
